The nature of series [1]: Rat plasma stability (half-life in vitro). Particulars: male, Sprague-Dawley, rat, plasma. It counts as in vitro ADME. On the procedure:
Plasma was obtained from male Sprague-Dawley rats by collecting blood in heparin tube and centrifugating at 13,000 rpm to remove blood cells. The isolated plasma was stored at −80° C. and thawed right before the test. In 96-well plate, 6 μL of peptide solution at 1 mM was incubated with 27 μL of plasma at 37° C. in an oven equipped with orbital shaker. Tightly fitted caps were used to seal the wells to avoid water evaporation during incubation. […] A 96-well UPLC plate was put at the bottom to collect the samples. Both plates were centrifuged at 500 g for 10 min at 4° C. to accelerate the filtration. […] The quantity of remaining peptide was plotted into an exponential one-phase decay curve using GraphPad Prism 8 which allowed to calculate peptide half-life. The results were presented as mean±SEM of at least 3 independent experiments, each done in simplicate.
The percentage of remaining analogue was calculated by doing the ratio between AU of compound and AUC of internal standard. Half-lives were extrapolated from curves.

The target in series [2] is T1, hAPJ receptor (Homo sapiens, UniProt P35414).
T1 construct: expressed in transfected cells; host or cells: HEK293, transient transfection with PEI
T1 sequence (P35414 1-380): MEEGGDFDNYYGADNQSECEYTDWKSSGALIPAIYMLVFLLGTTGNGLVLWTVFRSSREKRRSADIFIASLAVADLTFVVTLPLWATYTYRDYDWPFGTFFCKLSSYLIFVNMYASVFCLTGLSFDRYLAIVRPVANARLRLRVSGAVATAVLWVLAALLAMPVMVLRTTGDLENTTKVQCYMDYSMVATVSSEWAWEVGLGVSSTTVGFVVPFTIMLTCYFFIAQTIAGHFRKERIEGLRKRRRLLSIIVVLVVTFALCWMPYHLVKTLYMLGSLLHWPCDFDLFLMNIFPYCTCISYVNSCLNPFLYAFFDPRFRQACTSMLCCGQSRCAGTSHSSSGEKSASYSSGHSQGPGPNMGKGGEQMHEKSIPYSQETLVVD
The series is described as follows: BRET-based β-arrestin2 recruitment assay in HEK293 cells. It counts as cell-based. The procedure, abridged:
(§1)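 HEK293 cells in HBSS stimulated with analogs from 10^−5 to 10^−11 M, 5 min at 37 °C (Gαi1) or 30 min at room temperature (β-arrestin2).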
A general note: In BRET a luciferase serves as donor, and the signal depends on an acceptor being close.

The target of series [3] is T1, hAPJ receptor. Put plainly: BRET-based Gαi1 activation assay in HEK293 cells. It counts as cell-based. The procedure, abridged:
as §1

In a further series the target is T2, human APJ (hAPJ) (Homo sapiens, UniProt P35414).
T2 construct: expressed in transfected cells; cell membranes
T2 sequence (P35414 1-380): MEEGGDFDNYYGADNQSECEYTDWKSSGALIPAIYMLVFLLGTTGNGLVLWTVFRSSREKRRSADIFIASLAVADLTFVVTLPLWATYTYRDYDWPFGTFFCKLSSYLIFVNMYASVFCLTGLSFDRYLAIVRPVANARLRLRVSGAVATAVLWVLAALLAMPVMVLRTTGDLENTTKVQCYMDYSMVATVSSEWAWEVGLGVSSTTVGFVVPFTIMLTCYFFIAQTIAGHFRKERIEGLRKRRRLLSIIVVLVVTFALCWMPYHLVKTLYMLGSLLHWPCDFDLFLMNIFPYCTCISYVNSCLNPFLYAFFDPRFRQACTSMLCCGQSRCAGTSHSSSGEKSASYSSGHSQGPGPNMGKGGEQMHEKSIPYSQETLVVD
Put plainly: Competitive radioligand binding ([125I][Nle75,Tyr77][Pyr1]-Ape13) on membranes of HEK293 cells stably expressing human APJ. The conditions noted are these: Ki binding. The method, then:
HEK293 cells stably expressing YFP-tagged human APJ were cultured in DMEM medium supplemented with 10% FBS, at 37° C. under a humid atmosphere maintaining 5% CO2. Antibiotic G418 (400 μg/mL) was added to maintain a selection pressure for APJ-expressing cells while penicillin/streptomycin (0.1%) were used to prevent bacterial contamination.
Binding experiments were performed on cell membranes of HEK293 stably expressing the YFP-tagged human APJ receptor. Cells were frozen at −80° C. for storage and quickly thawed right before the experiments (1 min at 37° C.). […] The precipitate (cell membranes) was suspended in binding buffer (50 mM Tris-HCl, 0.2% BSA, pH 7.4). Binding assays were run in 96-well plates. […] (820 Ci/mmol)^3 and test ligand with a range of concentrations from 10^−1 to 10^−11 M in a total volume of 200 μL for 1 h at room temperature.
The incubation mixtures were filtered through a glass fiber filter (Millipore, pre-absorbed of PEI 0.5% for 2 h at 4° C.) to remove unbound ligands, and the filter membranes were washed three times with 170 μL cold binding buffer (4° C.). The γ emission was measured using a 1470 Wizard γ-counter from PerkinElmer (Waltham, USA) (80% efficiency).

The target of series [4] is T3, human APJ (transfected HEK293 cells, Gαi1 BRET assay) (human, UniProt P35414 1-380).
T3 sequence (looked up): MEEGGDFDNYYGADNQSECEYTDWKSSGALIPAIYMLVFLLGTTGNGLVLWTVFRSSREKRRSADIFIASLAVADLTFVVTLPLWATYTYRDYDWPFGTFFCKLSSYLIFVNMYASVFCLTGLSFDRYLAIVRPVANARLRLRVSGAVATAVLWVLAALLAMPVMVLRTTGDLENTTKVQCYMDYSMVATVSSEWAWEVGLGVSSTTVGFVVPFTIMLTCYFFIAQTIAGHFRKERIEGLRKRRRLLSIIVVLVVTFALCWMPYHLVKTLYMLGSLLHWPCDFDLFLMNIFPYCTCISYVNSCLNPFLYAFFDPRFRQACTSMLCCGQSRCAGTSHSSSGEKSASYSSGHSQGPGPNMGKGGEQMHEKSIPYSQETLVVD
Put plainly: cell-based or functional assay.

Series [5] addresses T4, YFP-tagged human APJ receptor (human, UniProt P35414 1-380).
T4 construct: whole, on cells; also called hAPJ; APJ WT; not shown: YFP tag
T4 sequence (looked up): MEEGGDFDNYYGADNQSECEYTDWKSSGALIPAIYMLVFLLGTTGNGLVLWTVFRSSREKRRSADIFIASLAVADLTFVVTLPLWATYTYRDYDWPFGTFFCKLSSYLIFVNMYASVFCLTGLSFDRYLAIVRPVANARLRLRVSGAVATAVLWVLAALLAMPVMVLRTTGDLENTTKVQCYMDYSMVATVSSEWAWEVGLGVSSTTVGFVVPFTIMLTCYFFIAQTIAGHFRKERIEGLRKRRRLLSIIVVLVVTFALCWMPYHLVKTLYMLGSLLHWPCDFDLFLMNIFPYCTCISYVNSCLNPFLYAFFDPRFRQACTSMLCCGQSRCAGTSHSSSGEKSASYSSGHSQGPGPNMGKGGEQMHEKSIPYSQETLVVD
The series is described as follows: competitive radioligand binding, HEK293-hAPJ membranes.

This note sets out measurements from patent publication US20240343761A1, “APELINERGIC MACROCYCLES AND USES THEREOF” (priority 2021, published 2024).

Read-outs that look alike come from different tables or passages of the source. Numbered stars: 1 amine (or outer) side, 2 acyl side, 3 side chain; on linkers, the order of the positions; unused ones are H or OH. Bridge positions count the residues as written; N and C are the ends. Square brackets hold non-standard residues; d marks the D form. Ends that are not written are not given here. Peptide text beside a SMILES is read from it. * marks the point of attachment. Hyp(OBn) = O-benzyl-4-hydroxyproline, O=C([C@@H]1C[C@@H](OCc2ccccc2)CN1[*:1])[*:2]; Oic = O=C(O)[C@@H]1C[C@@H]2CCCC[C@@H]2N1; Phe(4-Br) = N[C@@H](Cc1ccc(Br)cc1)C(=O)O; Benzoyl(4-Br) = O=C(c1ccc(Br)cc1)*; hArg = N=C(N)NCCCC[C@H](N)C(=O)O; AllylGly = C=CC[C@H](N)C(=O)O; pGlu = O=C1CC[C@@H](C(=O)O)N1; Nle = CCCC[C@H](N)C(=O)O A value given as a limit tells only on which side of the number the result lay.

As for `CCCC[C@H](NC(=O)[C@@H]1CCC(=O)NCCCC[C@H](N)C(=O)N[C@@H](CCCNC(=N)N)C(=O)N[C@@H](CCCNC(=N)N)C(=O)N1)C(=O)N[C@H]1CSSC[C@@H](C(=O)N[C@@H](CCCNC(=N)N)C(=O)N[C@H](C(=O)N2CCC[C@H]2C(=O)N[C@@H](Cc2ccccc2)C(=O)N2CCC[C@H]2C(=O)O)C(C)C)NC(=O)[C@H](Cc2c[nH]cn2)NC(=O)[C@H](CC(C)C)NC1=O` [Compound 79, c[K-R-R-E]-Nle-c[C-L-H-C]-R-V-P-F-P] (H-KRRE[Nle]CLHCRVPFP-OH; lactam 1-4; disulfide 6-9), the half-life at […] in series [1] (Table III, rat plasma, read-out: Half-life in vitro (converted)) was > 17 h. For the same molecule, the EC50 at hAPJ receptor [2] came out at 51 ± 3 nM; at hAPJ receptor [3], 4 ± 0.8 nM.
On to `CC(C)C[C@@H]1NC(=O)[C@H](CCCNC(=N)N)NC(=O)[C@@H](N)CC=CC[C@@H](C(=O)N[C@@H](CCCCN)C(=O)NCC(=O)N2CCC[C@H]2C(=O)N[C@@H](C)C(=O)O)NC(=O)[C@H](CO)NC1=O` [Compound 34, NH2-c[X-R-L-S-X]c-K-G-P-Ala] (H-[AllylGly]RLS[AllylGly]KGPA-OH; staple 1-5), for which the half-life at 0.182 mM in series [1] (Table I, rat plasma, 37° C., up to 24 h) was 0.8 ± 0.3 h. For the same molecule, the Ki on human APJ (hAPJ) is > 10000 nM.
The molecule `CCCC[C@H](NC(=O)[C@@H]1CCCN1C(=O)CNC(=O)[C@H](CCCCN)NC(=O)[C@@H]1CC=CC[C@H](NC(=O)[C@H](CCCNC(=N)N)NC(=O)[C@@H]2CCC(=O)N2)C(=O)N[C@@H](CCCNC(=N)N)C(=O)N[C@@H](CC(C)C)C(=O)N[C@@H](CO)C(=O)N1)C(=O)N1CCC[C@H]1C(=O)N[C@@H](Cc1ccccc1)C(=O)O` [Compound 97, Pyr-R-c[X-R-L-S-X]c-K-G-P-Nle-P-F, reference compound] displayed a half-life at […] in series [1] (t1/2 in rat plasma) of 2 to 5 h. Besides, the Emax at hAPJ receptor [2] (HEK293, Table V, read-out: ß-arr2 Emax) amounted to 98%; on hAPJ receptor [3] (HEK293, Table V, read-out: Gαi1 Emax) it was 101%.

B1: Compound 93 (KT03-19) (peptide)
peptide: [pGlu]RRSEPLHKRVPF[Hyp(OBn)]
modifications: lactam 5-9
In the case of B1, the “EC50 Gail” value in series [4] turned out to be 47 nM.

B2: Compound 76 (AM03-40) (peptide)
peptide: [pGlu]RRSKPLHERVPFP
modifications: lactam 5-9
For B2, the Ki in series [5] turned out to be 119 nM.

B3: Compound 72 (AM03-37) (peptide)
peptide: KRRE[Nle]PLHSRVPFP
modifications: lactam 1-4
Turning to B3, the Ki in series [5] came out at 0.87 nM. Moreover, the “EC50 Gail” value in series [4] is 1.7 nM.

B4: Compound 74 (AM03-38) (peptide)
peptide: [pGlu]RRK[Nle]PEHSRVPFP
modifications: lactam 4-7
For the molecule B4, in series [5], the Ki was 261 nM.

B5: Compound 92 (KT03-15) (peptide)
peptide: [pGlu]RRSEPLHKRVP[Phe(4-Br)]P
modifications: lactam 5-9
For B5, the “EC50 Gail” value in series [4] was 16 nM.

B6: Compound 90 (KT03-16) (peptide)
peptide: [pGlu][hArg]RSEPLHKRVPFP
modifications: lactam 5-9
As for B6, in series [4], the “EC50 Gail” value came out at 15 nM.

B7: Compound 84 (ABB01-109) (peptide)
peptide: [Nle]PEHSRKPFP
modifications: lactam 3-7
On to B7, for which the inhibition constant Ki in series [5] turned out to be 274 nM.

B8: Compound 75 (ABB01-105) (peptide)
peptide: [pGlu]RRE[Nle]PKHSRVPFP
modifications: lactam 4-7
B8: the Ki in series [5] is 59 nM. In addition, the “EC50 Gail” value in series [4] was 19 nM.

B9: Compound 73 (AM03-66) (peptide)
peptide: KRRE[Nle]PLHSRV[Oic]FP
modifications: lactam 1-4
For the molecule B9, the Ki in series [5] turned out to be 11 nM. Moreover, the “EC50 Gail” value in series [4] came to 14 nM.

B10: Compound 77 (ABB01-106) (peptide)
peptide: [pGlu]RRSEPLHKRVPFP
modifications: lactam 5-9
Molecule B10 had a Ki in series [5] of 6.2 nM. In series [4], the “EC50 Gail” value stood at 6.1 nM.

B11: Compound 78 (AM03-67) (peptide)
peptide: [pGlu]RRSEPLHKRV[Oic]FP
modifications: lactam 5-9
The molecule B11 came in with a Ki in series [5] of 173 nM. For the same molecule, the “EC50 Gail” value in series [4] was 24 nM.

B12: Compound 94 (KT04-16) (peptide)
peptide: {Benzoyl(4-Br)}-RRSEPLHKRVP[Phe(4-Br)]P
modifications: lactam 4-8
Turning to B12, the Ki in series [5] stood at 0.29 nM.

Usually half-life stands for the time needed for the level to fall by half in the phase considered. In general, EC50 refers to the concentration needed to bring the measured effect to its halfway point. The Ki is a measure of affinity in units of concentration, obtained from inhibition or displacement. By Emax is commonly meant the size of the effect at its maximum, as opposed to the concentration needed.
